The target in this experiment is VEGFR2 (Homo sapiens, UniProt P35968). Briefly: NFAT luciferase reporter gene assay in HEK293T ReLuc2P cells stably expressing wild-type VEGFR2. The experiment is classed as cell-based. The arrangement: in cells expressing the wild-type VEGFR2 receptor; host or cells: HEK293T ReLuc2P suspension cell line. Conditions: cells expressing the wild-type VEGFR2 receptor; n = 4. As for the experimental part: NFAT luciferase reporter gene activity was monitored in a HEK293T ReLuc2P (Promega Corporation, USA) suspension cell line stably expressing VEGFR2 as described previously.
NFAT reporter genes: All data obtained from the NFAT luciferase reporter gene assays were normalised to 10 nM VEGF165a responses and fitted with non linear regression using the equation as described previously.

This note sets out measurements from PMC5457915, “Real-time analysis of the binding of fluorescent VEGF165a to VEGFR2 in living cells: Effect of receptor tyrosine kinase inhibitors and fate of internalized agonist-receptor complexes” (Biochemical Pharmacology, 2017).

Chain of VEGFR2 (P35968 20-1356): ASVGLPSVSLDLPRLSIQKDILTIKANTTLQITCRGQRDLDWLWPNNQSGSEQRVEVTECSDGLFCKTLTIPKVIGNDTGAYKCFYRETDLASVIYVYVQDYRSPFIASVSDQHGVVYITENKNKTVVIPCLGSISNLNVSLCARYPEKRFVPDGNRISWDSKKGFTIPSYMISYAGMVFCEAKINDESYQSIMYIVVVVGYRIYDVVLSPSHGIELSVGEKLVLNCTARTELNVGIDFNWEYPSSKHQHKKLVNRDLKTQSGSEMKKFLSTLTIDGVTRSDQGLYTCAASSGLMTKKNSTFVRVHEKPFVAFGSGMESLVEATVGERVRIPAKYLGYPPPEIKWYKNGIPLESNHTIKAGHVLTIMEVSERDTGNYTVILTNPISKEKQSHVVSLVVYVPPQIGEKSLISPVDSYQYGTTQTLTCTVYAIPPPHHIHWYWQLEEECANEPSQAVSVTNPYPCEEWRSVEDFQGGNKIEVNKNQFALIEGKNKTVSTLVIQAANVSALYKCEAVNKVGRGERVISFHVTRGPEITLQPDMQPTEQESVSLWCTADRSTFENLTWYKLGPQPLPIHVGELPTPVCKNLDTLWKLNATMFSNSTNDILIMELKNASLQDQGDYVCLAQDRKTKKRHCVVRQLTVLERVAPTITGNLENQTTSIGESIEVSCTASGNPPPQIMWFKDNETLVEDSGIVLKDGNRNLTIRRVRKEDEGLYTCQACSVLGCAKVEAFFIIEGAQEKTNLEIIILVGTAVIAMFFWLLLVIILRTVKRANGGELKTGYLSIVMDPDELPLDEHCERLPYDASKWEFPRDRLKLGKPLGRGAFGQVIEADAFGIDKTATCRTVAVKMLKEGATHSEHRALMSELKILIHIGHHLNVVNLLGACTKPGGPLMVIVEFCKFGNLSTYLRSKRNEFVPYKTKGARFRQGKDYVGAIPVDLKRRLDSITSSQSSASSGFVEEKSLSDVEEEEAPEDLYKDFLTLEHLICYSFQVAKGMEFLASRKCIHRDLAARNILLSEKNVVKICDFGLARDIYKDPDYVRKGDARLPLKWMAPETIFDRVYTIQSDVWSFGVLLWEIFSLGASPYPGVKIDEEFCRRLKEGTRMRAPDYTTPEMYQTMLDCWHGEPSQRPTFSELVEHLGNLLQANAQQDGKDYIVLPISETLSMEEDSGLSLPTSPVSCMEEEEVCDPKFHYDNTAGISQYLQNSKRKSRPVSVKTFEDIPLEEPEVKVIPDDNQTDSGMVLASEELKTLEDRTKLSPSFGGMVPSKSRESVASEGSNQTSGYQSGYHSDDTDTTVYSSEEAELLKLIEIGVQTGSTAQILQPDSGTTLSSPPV

B1: non-fluorescent VEGF165a: unlabeled VEGF165a purified in an identical manner to VEGF165a-TMR, with modified N-terminus (protein)
chain: CDNAPMAEGGGQNHHEVVKFMDVYQRSYCHPIETLVDIFQEYPDEIEYIFKPSCVPLMRCGGCCNDEGLECVPTEESNITMQIMRIKPHQGQHIGEMSFLQHNKCECRPKKDRARQENPCGPCSERRKHLFVQDPQTCKCSCKNTDSRCKARQLELNERTCRCDKPRR
modifications: free N-terminal Cys (unlabeled); HEK293T-expressed, glycosylated; disulfide-linked antiparallel homodimer
B1: the “pEC50, NFAT reporter gene agonist activity” value is on record as 9.72 ± 0.09.
